Experimental data from patent US20090298765A1 (Takeda / Millennium, published 2009).
Starred links: 1 amine or outer side, 2 acyl side, 3 side chain; linkers in the order of their positions; H or OH if unused. Non-standard residues stand in square brackets, D forms with d. Primed or numbered codes have the meaning given here. No end group written: not given here. *: point of attachment. Trp(For)″ = Trp(CHO), formyl-Trp, O=Cn1cc(C[C@H](N[*:1])C(=O)[*:2])c2ccccc21; GuAmb = 4-guanidinomethylbenzoyl, N=C(N)NCc1ccc(C(=O)*)cc1; Phe(3-CF3) = N[C@@H](Cc1cccc(C(F)(F)F)c1)C(=O)O; Arg(Et)′ = arginine carrying an ethyl group; Phe(4-CN) = N#Cc1ccc(C[C@H](N)C(=O)O)cc1; Phe(4-Cl) = N[C@@H](Cc1ccc(Cl)cc1)C(=O)O; Phe(3-F) = N[C@@H](Cc1cccc(F)c1)C(=O)O; Phe(4-F) = N[C@@H](Cc1ccc(F)cc1)C(=O)O; Phe(2-F) = N[C@@H](Cc1ccccc1F)C(=O)O; Arg(Me) = CNC(=N)NCCC[C@H](N)C(=O)O; Fmoc = O=C(OCC1c2ccccc2-c2ccccc21)*; 2Pal = N[C@@H](Cc1ccccn1)C(=O)O; 3Pal = N[C@@H](Cc1cccnc1)C(=O)O; Cha = N[C@@H](CC1CCCCC1)C(=O)O; Arg(Et)″ = ethylated arginine; Dab = NCC[C@H](N)C(=O)O; azaGly = NNC(=O)O

Experiments:
[1] = target: T1, human OT7T175 (metastin receptor) (human, UniProt Q969F8 1-398); test: competition with Cy-5 metastin (40-54) on hOT7T175-CHO cells, FMAT
T1 construct: expressed on CHO cells; also called hOT7T175; hOT7T175-expressed CHO cells
Protocol: hOT7T175-Expressed CHO cells were cultured in MEM-α medium (nucleic acid-free) containing 10% dialyzed serum. The medium was removed and the adhered cells were washed with PBS. Then, PBS containing 5 mM EDTA was added and the cells were scraped from a flask with a cell scraper.
To each well of a 96-Well Black Clear Bottom Microplate (Applied Biosystems, Inc.), 10 μL of assay buffer containing 1% dimethylsulfoxide was added to examine total binding, 10 μL of 10 μM non-labeled peptide (having the same amino acid sequence as that of labeled one) solution diluted with assay buffer to examine non-specific binding, and 10 μL of a test compound diluted with assay buffer to examine a binding inhibition activity of the test compound, and furthermore, 90 μL each of the cell suspension was dispensed to each well. […] Specific binding is calculated as non-specific binding subtracted from total binding. The binding inhibition activity of a test compound is shown by a ratio of the value obtained by subtracting a measured value in presence of a test compound from the total binding to the specific binding.

[2] = target: T1, human OT7T175 (metastin receptor); test: cell-based or functional assay

T1 sequence (Q969F8 whole entry L364H): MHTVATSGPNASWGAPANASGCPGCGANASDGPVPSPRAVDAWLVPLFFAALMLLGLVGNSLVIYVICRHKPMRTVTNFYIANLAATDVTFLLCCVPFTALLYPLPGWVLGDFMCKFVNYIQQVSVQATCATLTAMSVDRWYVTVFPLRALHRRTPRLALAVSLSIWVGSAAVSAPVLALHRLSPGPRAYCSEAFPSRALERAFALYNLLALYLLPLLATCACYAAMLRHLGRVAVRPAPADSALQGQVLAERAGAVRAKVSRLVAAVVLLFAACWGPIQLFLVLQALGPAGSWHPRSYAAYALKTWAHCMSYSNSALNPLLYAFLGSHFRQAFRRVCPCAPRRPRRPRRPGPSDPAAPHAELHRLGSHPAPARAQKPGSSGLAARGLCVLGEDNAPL

Row | Binder | IC50 [1] | Ca ion level-increasing activity (FLIPR) [2]
1 | YNWNSFGLR[Phe(4-CN)]-NH2 (also called Compound No. 77) [[Phe(4CN)10]MS10] | 7.4 nM | 
2 | [dY][dN][Cha]NSF[azaGly]L[Arg(Me)]F-NH2 (also called Compound No. 283) [[D-Tyr1,D-Asn2,Cha3,AzaGly7,Arg(Me)9]MS10] | 0.69 nM | 
3 | [dY]N[Cha]NS[Cha]GL[Arg(Me)]F-NH2 (also called Compound No. 181) [[D-Tyr1,Cha3,6,Arg(Me)9]MS10] | 19 nM | 
4 | [dN][Cha]NSF[azaGly]L[Arg(Me)]F-NH2 [des(1)-[D-Asn2,Cha3,AzaGly7,Arg(Me)9]MS10] |  | 1 x Metastin (1-54)
5 | YNWNSFGLR[Phe(4-Cl)]-NH2 (also called Compound No. 130) [[Phe(4Cl)10]MS10] | 42 nM | 
6 | [dY]N[dW]NSFGL[Arg(Me)]F-NH2 (also called Compound No. 142) [[D-Tyr1,D-Trp3,Arg(Me)9]MS10] | 26 nM | 
7 | [dY]NWNSFGL[Arg(Me)]F-NH2 (also: bond 7-8 CONH replaced by CH2NH, also called Compound No. 307) [[7Ψ8,CH2NH,D-Tyr1,Arg(Me)9]MS10] | 64 nM | 
8 | YNWNSFGLR[Phe(3-CF3)]-NH2 (also called Compound No. 200) [[Phe(3CF3)10]MS10] | 340 nM | 
9 | YNWNSFGLR[Phe(4-F)]-NH2 (also called Compound No. 61) [[Phe(4F)10]MS10] | 13 nM | 
10 | YNWNSFGLRX (Pya(3)10; C-terminal amide, also called Compound No. 60) [[Pya(3)10]MS10] | 170 nM | 
11 | [dW]NSFGL[Arg(Me)]F-NH2 (also called Compound No. 223) [des(1-2)-[D-Trp3,Arg(Me)9]MS10] | 760 nM | 
12 | Ac-RNSF[azaGly]L[Arg(Me)]F-NH2 (SMILES CNC(=N)NCCC[C@H](NC(=O)[C@H](CC(C)C)NC(=O)NNC(=O)[C@H](Cc1ccccc1)NC(=O)[C@H](CO)NC(=O)[C@H](CC(N)=O)NC(=O)[C@H](CCCNC(=N)N)NC(C)=O)C(=O)N[C@@H](Cc1ccccc1)C(N)=O, also called Compound No. 275) [des(1-2)-Acetyl-[Arg3,AzaGly7,Arg(Me)9]MS10] | 410 nM | 
13 | Ac-TNSF[azaGly]L[Arg(Me)]F-NH2 (SMILES CNC(=N)NCCC[C@H](NC(=O)[C@H](CC(C)C)NC(=O)NNC(=O)[C@H](Cc1ccccc1)NC(=O)[C@H](CO)NC(=O)[C@H](CC(N)=O)NC(=O)[C@@H](NC(C)=O)[C@@H](C)O)C(=O)N[C@@H](Cc1ccccc1)C(N)=O, also called Compound No. 276) [des(1-2)-Acetyl-[Thr3,AzaGly7,Arg(Me)9]MS10] | 480 nM | 
14 | Ac-ANSF[azaGly]L[Arg(Me)]F-NH2 (SMILES CNC(=N)NCCC[C@H](NC(=O)[C@H](CC(C)C)NC(=O)NNC(=O)[C@H](Cc1ccccc1)NC(=O)[C@H](CO)NC(=O)[C@H](CC(N)=O)NC(=O)[C@H](C)NC(C)=O)C(=O)N[C@@H](Cc1ccccc1)C(N)=O) [des(1-2)-Acetyl-[Ala3,AzaGly7,Arg(Me)9]MS10] |  | 1 x Metastin (1-54)
15 | ANWNSFGLRF-NH2 (also called Compound No. 72) [[Ala1]MS10] | 540 nM | 
16 | YNKNSFGLRF-NH2 (also called Compound No. 71) [[Lys3]MS10] | 66 nM | 
17 | YNSNSFGLRF-NH2 (also called Compound No. 69) [[Ser3]MS10] | 83 nM | 
18 | YDWNSFGLRF-NH2 (also called Compound No. 57) [[Asp2]MS10] | 100 nM | 
19 | YNLNSFGLRF-NH2 (also called Compound No. 68) [[Leu3]MS10] | 7.7 nM | 
20 | YLWNSFGLRF-NH2 (also called Compound No. 59) [[Leu2]MS10] | 340 nM | 
21 | YNWNSFGLKF-NH2 (also called Compound No. 44) [[Lys9]MS10] | 190 nM | 
22 | YNWNSFGVRF-NH2 (also called Compound No. 107) [[Val8]MS10] | 120 nM | 
23 | YNWNSYGLRF-NH2 (also called Compound No. 150) [[Tyr6]MS10] | 320 nM | 
24 | LNWNSFGLRF-NH2 (also called Compound No. 73) [[Leu1]MS10] | 220 nM | 
25 | YNDNSFGLRF-NH2 (also called Compound No. 70) [[Asp3]MS10] | 200 nM | 

Row | Binder | IC50 [1] | Ca ion level-increasing activity (FLIPR) [2]
26 | YYWNSFGLRF-NH2 (also called Compound No. 58) [[Tyr2]MS10] | 16 nM | 
27 | [dY]N[dA]NSF[azaGly]L[Arg(Me)]F-NH2 (also called Compound No. 252) [[D-Tyr1,D-Ala3,AzaGly7,Arg(Me)9]MS10] | 580 nM | 
28 | [dY][dN]FNSF[azaGly]L[Arg(Me)]F-NH2 (also called Compound No. 257) [[D-Tyr1,D-Asn2,Phe3,AzaGly7,Arg(Me)9]MS10] | 40 nM | 3 x Metastin (1-54)
29 | [dA]NWNSF[azaGly]L[Arg(Me)]F-NH2 (N-terminus assumed; SMILES CNC(=N)NCCC[C@H](NC(=O)[C@H](CC(C)C)NC(=O)NNC(=O)[C@H](Cc1ccccc1)NC(=O)[C@H](CO)NC(=O)[C@H](CC(N)=O)NC(=O)[C@H](Cc1c[nH]c2ccccc12)NC(=O)[C@H](CC(N)=O)NC(=O)[C@@H](C)N)C(=O)N[C@@H](Cc1ccccc1)C(N)=O, also called Compound No. 259) [[D-Ala1,AzaGly7,Arg(Me)9]MS10] | 250 nM | 1 x Metastin (1-54)
30 | [dY]NSNSF[azaGly]L[Arg(Me)]F-NH2 (also called Compound No. 191) [[D-Tyr1,Ser3,AzaGly7,Arg(Me)9]MS10] | 300 nM | 
31 | [dY]NTNSF[azaGly]L[Arg(Me)]F-NH2 (also called Compound No. 221) [[D-Tyr1,Thr3,AzaGly7,Arg(Me)9]MS10] | 95 nM | 
32 | [dY]NPNSF[azaGly]L[Arg(Me)]F-NH2 (N-terminus assumed; SMILES CNC(=N)NCCC[C@H](NC(=O)[C@H](CC(C)C)NC(=O)NNC(=O)[C@H](Cc1ccccc1)NC(=O)[C@H](CO)NC(=O)[C@H](CC(N)=O)NC(=O)[C@@H]1CCCN1C(=O)[C@H](CC(N)=O)NC(=O)[C@H](N)Cc1ccc(O)cc1)C(=O)N[C@@H](Cc1ccccc1)C(N)=O, also called Compound No. 253) [[D-Tyr1,Pro3,AzaGly7,Arg(Me)9]MS10] | 27 nM | 
33 | YNWNSFGLR[Trp(For)″]-NH2 (also called Compound No. 186) [[Trp(For)10]MS10] | 460 nM | 
34 | YNWNYFGLRF-NH2 (also called Compound No. 23) [[Tyr5]MS10] | 400 nM | 
35 | YNANSFGLRF-NH2 (also called Compound No. 67) [[Ala3]MS10] | 27 nM | 
36 | YNWNSFGLR[Phe(3,4F2)]-NH2 (also called Compound No. 198) [[Phe(3,4F2)10]MS10] | 170 nM | 
37 | {D‑glucuronyl}-NSF[azaGly]L[Arg(Me)]F-NH2 (also called Compound No. 328) [des(1-3)-D-Glucuronyl-[AzaGly7,Arg(Me)9]MS10] | 470 nM | 
38 | YNWNSF[azaGly]L[Arg(Me)]F-NH2 (also: bond 1-2 CONH replaced by CH2NH, also called Compound No. 299) [[1Ψ2,CH2NH,AzaGly7,Arg(Me)9]-MS10] | 1.2 nM | 
39 | YNWNSFGL[Dab]F-NH2 (also called Compound No. 313) [[Dab9]MS10] | 690 nM | 
40 | NWNSFGLRF-NH2 (also called Compound No. 4) [des(1)-MS10] | 260 nM | 
41 | [dY]NWNSFGL[Arg(Et)″]F-NH2 (also called Compound No. 192) [[D-Tyr1,Arg(Et)9]MS10] | 530 nM | 
42 | Fmoc-WNSFGL[Arg(Me)]F-NH2 (also called Compound No. 145) [des(1-2)-Fmoc-[Arg(Me)9]MS10] | 120 nM | 
43 | YNWNSFGL[Arg(Et)′]F-NH2 (also called Compound No. 220) [[Arg(Et)9]MS10] | 330 nM | 
44 | [dY]N[2Pal]NSF[azaGly]L[Arg(Me)]F-NH2 (also called Compound No. 285) [[D-Tyr1,Pya(2)3,AzaGly7,Arg(Me)9]MS10] | 40 nM | 
45 | [dY]N[3Pal]NSF[azaGly]L[Arg(Me)]F-NH2 (also called Compound No. 251) [[D-Tyr1,Pya(3)3,AzaGly7,Arg(Me)9]MS10] | 87 nM | 
46 | [dY]N[dW]NSF[azaGly]L[Arg(Me)]F-NH2 (also called Compound No. 236) [[D-Tyr1,D-Trp3,AzaGly7,Arg(Me)9]MS10] | 42 nM | 
47 | GuAmb-F[azaGly]L[Arg(Me)]W-NH2 [des(1-5)-GuAmb-[AzaGly7,Arg(Me)9,Trp10]MS10] |  | 5 x Metastin (1-54)
48 | YNWNSFGLR[Phe(2-F)]-NH2 (also called Compound No. 19) [[Phe(2F)10]MS10] | 8.6 nM | 
49 | YNWNSFGLR[Phe(3-F)]-NH2 (also called Compound No. 197) [[Phe(3F)10]MS10] | 170 nM | 
